Results on four molecules are retold here after patent US20220249685A1 (SILVERBACK THERAPEUTICS, published 2022).

The target of test [1] is T1, human MSLN expressed on tumor cell lines (OVCAR3, NCI-N87) or on transfected HEK-293 cells (human, UniProt Q13421 296-598).
T1 construct: whole, on cells; also called human mesothelin
Nature of the test: flow cytometry on NCI-N87 cells, anti-huIgG1-PE, MFI (Geo Mean).

In test [2] the target is T2, cynomolgus MSLN on transfected 293 cells (cynomolgus).
T2 construct: whole, on cells; also called cyno MSLN; cynomolgus mesothelin
Nature of the test: flow cytometry on 293 cells transiently transfected with cyno MSLN, anti-huIgG1-PE, MFI (Geo Mean). On the technique in general: In flow cytometry, cells or beads pass a laser one at a time.

T1 sequence (Q13421 other isoform, or with tags, fused parts or gaps limits assumed): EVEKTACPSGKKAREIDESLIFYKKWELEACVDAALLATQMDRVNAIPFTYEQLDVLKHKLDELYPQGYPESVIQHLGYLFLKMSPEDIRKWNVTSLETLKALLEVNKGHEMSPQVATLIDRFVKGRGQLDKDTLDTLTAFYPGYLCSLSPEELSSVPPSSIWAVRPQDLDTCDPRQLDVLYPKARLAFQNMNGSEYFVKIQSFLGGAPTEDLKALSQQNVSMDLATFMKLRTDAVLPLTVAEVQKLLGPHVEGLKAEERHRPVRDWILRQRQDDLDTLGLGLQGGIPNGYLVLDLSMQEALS

B1: Antibody 55 (VH1-e G27Y, G55A, R66K, V67A, A71V / VKIII-L6) (antibody, V domains shown)
VH: QVQLVQSGAEVKKPGSSVKVSCKASGYTFSGYTMNWVRQAPGQGLEWMGLITPYNAASSYNQKFRGKATITVDKSTSTAYMELSSLRSEDTAVYYCARGGYDGRGFDYWGQGTTVTVSS
VL: EIVLTQSPATLSLSPGERATLSCSASSSVSYMHWYQQKPGQAPRLLIYDTSKLASGIPARFSGSGSGTDFTLTISSLEPEDFAVYYCQQWSKHPLTFGGGTKVEIK
In general, EC50 (read off the curve) refers to the concentration at which the effect is half-maximal. With B1, the results for the “EC50 (read off the curve)” value in test [1] and in test [2] were approximately 100 pM and approximately 80 pM, respectively.

B2: 55-IgG1-TLR8 conjugate (antibody, V domains shown)
VH: QVQLVQSGAEVKKPGSSVKVSCKASGYTFSGYTMNWVRQAPGQGLEWMGLITPYNAASSYNQKFRGKATITVDKSTSTAYMELSSLRSEDTAVYYCARGGYDGRGFDYWGQGTTVTVSS
VL: EIVLTQSPATLSLSPGERATLSCSASSSVSYMHWYQQKPGQAPRLLIYDTSKLASGIPARFSGSGSGTDFTLTISSLEPEDFAVYYCQQWSKHPLTFGGGTKVEIK
modifications: cysteines freed by TCEP reduction may carry the drug-linker; positions not given; cysteines freed by TCEP reduction carry the TLR8 agonist drug-linker; positions not given
notes: also called 55-TLR8
On to B2, for which the “EC50 (read off the curve)” value is approximately 200 pM in test [1] and approximately 100 pM in test [2].

B3: 56-IgG1-TLR8 conjugate (antibody, V domains shown)
VH: QVQLVQSGAEVKKPGSSVKVSCKASGGTFSGYTMNWVRQAPGQGLEWMGLITPYNAASSYNQKFRGRVTITADKSTSTAYMELSSLRSEDTAVYYCARGGYDGRGFDYWGQGTTVTVSS
VL: DIQMTQSPSTLSASVGDRVTITCSASSSVSYMHWYQQKPGKAPKLLIYDTSKLASGVPSRFSGSGSGTEFTLTISSLQPDDFATYYCQQWSKHPLTFGGGTKVEIK
modifications: cysteines freed by TCEP reduction may carry the drug-linker; positions not given; cysteines freed by TCEP reduction carry the TLR8 agonist drug-linker; positions not given
notes: also called 56-TLR8
As for B3, the “EC50 (read off the curve)” value in test [1] was approximately 300 pM; in test [2] it was approximately 200 pM.

B4: Antibody 56 (VH1-e CDRgraft G55A / VKI-L12) (antibody, V domains shown)
VH: QVQLVQSGAEVKKPGSSVKVSCKASGGTFSGYTMNWVRQAPGQGLEWMGLITPYNAASSYNQKFRGRVTITADKSTSTAYMELSSLRSEDTAVYYCARGGYDGRGFDYWGQGTTVTVSS
VL: DIQMTQSPSTLSASVGDRVTITCSASSSVSYMHWYQQKPGKAPKLLIYDTSKLASGVPSRFSGSGSGTEFTLTISSLQPDDFATYYCQQWSKHPLTFGGGTKVEIK
For B4, the figures for the “EC50 (read off the curve)” value in test [1] and in test [2] were approximately 200 pM and approximately 100 pM, respectively.
